Test results reported in the DeepSol protein solubility set.

Experiment: soluble on expression in E. coli; label from the status in PepcDB or PDB records

Sequence	soluble on expression in E. coli
MESAIKKRRLEDSKLLGDLWQRLSHSRKKLMEIFHIILNQICLLPILESSCDNIHGFIEEFLQIFSSLLQEKRFLRDYDALFPVAEDISLLQQASSVLDETRTAYILQAVESAWEGVDRRKATDAKDPSVIEEPNGEPNGVTVTAEAVSQASSHPENSEEEECMGAAAAVGPAMCGVELDSLISQVKDLLPDLGEGFILACLEYYHYDPEQVINNILEERLAPTLSQLDRNLDREMNPDPTPLLTSRHNVFQNDEFDVFSRDSVDLSRVHKGKSTRKEENTRSLLNDKRAVAAQRQCYEQYSVVVEEVPLQPGESLPYHSVYYEDEYDDTYDGNQVGANDADSDDELISRRPFTIPQVLRTKVPREGQEEDDDDEEDDADEEAPKPDHFVQDPAVLREKAEARRMAFLAKKGYRHDSSTAVAGSPRGHGQSRETTQERRKKEANKATRANHNRRTMADRKRSKGMIPS	soluble
MESELIFHEGGCHCGKIKWRVKAARSVIAWSCNCSDCSMRGNVHFIVPSSNFELLDDSKDFITTYTFGTHTAKHTFCKVCGITSFYIPRSNPDGVAVTVKCVKSGTLAHIEVKSYDGQNWEMSHKKTGIASFSKE	soluble
MESIGLVIVSHSKHIAEGVVELISKVAKDVPITYVRGTEGGGIGTSFEQVDRVVSENPADTLLAFFDLGSAKMNLKMVTDFSDKSIIINRVPIVEGAYNAAALLQAGAELSVIQTQLAELEINK	not soluble
MESYIQNLFAERIGGKSFGKEDVIYKFEKIKRAKQAAKLKYPDMELIDMGVGEPDEMADESVVEVLCEEAKKHVNRGYSDNGVQALKDEIPIYLEKIFGVKDLDPVNEVVHSIGSKPALAYITSVFINPGDVTLMTVPGYPVTATHTKWYGGSVETLPLLEKNNFLPELDAISKEVRENAKILYLNYPNNPTGAQATKKFYKEAVDFAFENDLIVIQDAAYAALTYGDKPLSFLSVKDAKEVGVEIHSFSKAYNMTGWRLAFVAGNELIVRGFAAVKDNYDSGQFIPIQKAGIHCLRHPEITEKTRAKYERRLSKMVKILKEAGFNAKMPGGTFYLYVKAPIGTKDGAKFANAEEFSQFMIKEKLISTVPWDDAGNFVRMAACFEAFKDGEISIEEEDRILNEVKRRLTEVEFVFE	not soluble
METADTYTIVLTERNMGYAGQFYMVSKEGIGEAPISVGSGYGNPLMFSIKAVGSVTKGIMNDPYGEIGIRGPYGNVWPWKSYEHVVAIAGGIGIPPIKALIEDMQGHTSLDKLTVLYGARSPSDIVYRSEIETWKEEMDFRITVDKGDENWRGHVGVVTTLVPEIKEYNHGAAFVIGPPVMMKFSVKSLLDAGFAEDNIYLSLERRMECGIGVCGHCNIGRWYACEDGPIFKYSDTKEEPELFL	not soluble
METETDDSETSLNDSFGNKDGLELLEYERATLAKTLPASVLFVVANGLGLERLFLEHLILFSDRRLLALVLNTNEHDESYFVSKLKEHNVECDPKVINSEVSIKDRQSIYLEGGVQFCSSRVLLVDLLQNRIPTDRIAAIFVYRAHQTLNAFQDSFILRLYREKKPDGTVKAFTDFPNSLSSLGQLQRLVDRLYIRHVELMPRFSSIIESELNRYQLKTAIFSVDVPTPLRRVHRTIIEFIKVCVRDLRTCSTSGKQTDEQNEEMIHVPWAATRLEKRLHDRRGHISEKQQRLLNDVASLREILQLSENMDVATVLSRLQVLKNDRTVLEEHSGWLLSPSFNRIMEDLLTIAGVTNGKADYKKFATPAKWTVLSEILREIKMLPVEKKDRGNDSPSVLVITSSEDLSRQVTDVVRYGINKMKWMTWRQLGYKSTQEMPEDEPLWDPDTISQLMRSSVDGESKSEVIANVQKTQKTTARAAQKRRKHAEELSGFSSDHRVQTNLIQFGILQYKRRKSGNEASTSQETTEWEVKEEMEEIEEITKNIGDLEAELVVSTTRERERYTLLKLLETKKPRAIVLYTMSLQTLRQIEIYRSTNPNRSLHVYWLQYTESTEESRYLESINRETMSFELLIREQGTLLISREFNVDREDAPRLKISTRDGGGARRDGAVDPRDQMDPEEELERPKIIVDMREFNSELPTVLYTKGYNVVATTIEIGDYILSPNIAIERKALDDLTQSLQSGRVFKQIEQMLEHYDCTVLLIESNRKFETKIVNGGPFQGELSRHCREIRSIFCSLIWANPKMRCVWTISPTNSAEFFSELKLSAPEPDVDRAISLKADQVECSSQELTDSEASTSTKAKKGKKWKPNPTVIRTLTQIFGIKASEAHNLLANSSIKTLADLFSLNITASHLSDFIPSTSADFIKDLSTFNFGRK	not soluble
METKPYLIALDLDGTLLKDDKTISENTLHTIQRLKDDGHYVCISTGRPYRSSSMYYQQMELTTPIVNFNGAFVHHPQDDSWGRYHTSLPLDVVKQLVDISESYNVHNVLAEVIDDVYFHYHDEHLIDAFNMNTTNVTVGDLRENLGEDVTSVLIHAKEEDVPAIRSYLSDVHAEVIDHRRWAAPWHVIEIIKSGMNKAVGLQKISDYYGVPRERIIAFGDEDNDLEMLEFAGCGVAMGNGIDAVKQIANRTTATNEEDGVARFLKEYFSL	soluble
METLSDVFATFSQRGDTTAFVHRTGVRRYVFTYLDLHALSLRMNRWLADQGVGEGDRVVLWGPNSPWWAVAFWGIVTRGAVAVPVDFMSGAERAEIIAGLTDAKLVIQSRDKLDRLTGRPSVLLEELGFLLEAVEPLATTHRPAPDDMAELIYTSGTTGNPKGVILTHRNLVANILQVNRHIPVVTPDFSFLSLLPLSHMFEQMGGFFTPLYRGAAIVYIRTLKPSAIMEALGEEDIYAIIAVPRLLQLLKGSVERELEAKGLGSIFRWLLKVGERMSRGGRSVLFRPIQRKFGRNFALFVSGGAPLDPEVFRFWNGLGFRVVEGYGLTECSPVLTANTMERQVMGSVGTPLDGVELRLEEGEILARGDNIFPGYFRNEEATRGAFVDGWFRTGDLGELDPDGWLRIKGRSKELIVTGAGVNVYPDEIEAILNRTQGVREGCVIGLDRGKGEEVHGVLILDGSGRPTEEIVNEVNAKFDELHRITSFSVWPEAEFPKTTTLKIRKFQVKERIEQGGGALGDGRGADRLTALVATITGSPLEQVTEGALLVNDLGLTSIARLELVNALEMEFRLDLEDSVIGPQTRVADLREIVSRREKVHIREHFRIWAMGGVALAVRRLLDTVLHGPLLRAFVTLKSLGIENLEAADGPVMFVSNHLSYLDQPAIMCVLPDAWRYNTATAAWEEFFFRNFKNLPQRLWKRFTYEYASVAFTVFPLPQSRGFRGALHFMGTLADQGMNILLFPEGERSRDGRLLPFQQGLGVMIRELGVPVVPVRIRGLEKVLPRGASWPQKGEVSITFGKPIHFRGESPTEIVDRARRAVEDLLEHHHHHH	not soluble
METRRDERIGRLAQALKKTDKLHLKDAAQLLGVSEMTVRRDLNADSTSVMLLGGYVVSDLKNNGVTNYFVSDQQTKHVREKQAIGTAAAYLVEANDTVFFDCGTTIPFIIDAIPDELLFTAICYSLNTFLALQEKKACRVILCGGEYHPDNAIFTPLNQRCELDNICPNKAFISAAGIELNAGATCFNFAELGMKQRAMATAQRIIIVADNSKFGQIKRACIGPMTLFDTVISDSAPSEPYLRYFSNNGIQLIHPGNLEHHHHHH	soluble
METTVMPAAASVQKQQGLNQVVINKVQRMIESRQGGVMDTINRLLSEGRIAQDFIAPIGVSQRSKERPVISFKAEGRVQMAMPEGNFNLHGNAISQISEKMGIPAKYLRELSAGDVWQKQLCATILNEHSGWTERTRVLIRAVGMEVRGVLSDSYRRLNSVDILTAFIREAGGQGAVVSDAYMNDTKVWCETILPTPIEIPTRKNGTVIIFAGARFSTSDYGNGSVEMRSFLLNGACLNGMVRESVMRQIHLGGRLPESLSLSQKTYELDTQTTVSAVSDLTKGLYSKDTIMQKAIEIQGASEIDVDFDKELKNLVQKGALLKNEGREVEKLLMNNNPDDGVTGGATLWKLTQGITAFAREQQPERCRELHEISGQLMNRVKIN	not soluble
METVQDCENKLPPSLKSRLCEIRRYEIIEGPEMDKHIHCVMRALDFVYEDGRGDYHKLYDPLNIIELDKRHDVNLEKCIGECVQVPTSERAHVFYKCLLKSTTGRTFKKVFDLMELKKAGKVPQHQRYTAEFVQIMKDYDKALNC	soluble
MEVDPGGGKKPMIVKKMVAFSKREEERILLEIDLYKKLENNEFVIDLMAHIVDDITHYLLFDKYSQNFLEYIEELKIGGEVDELKHLKYFSGIVSAIEQLHGFEFAHLDIKPANILKSGDTIKMIDFGSATKMPIEIKTSADHHRHKEDAEELCSMMYRAPELFNCEIGSTLTTAVDVWALGVCLYEFLYLENPFNKIYEQGGSIALATQSPHMIKWNENRHISEKSINLIKSILIVDPNQRPTIGELRAKVDNLLANFDTPEEAENPEITDEEFDLGMRETT	not soluble
MEVEYDEGFDSSSLKNNPASLQRDYPTFMESNCSQMSVRQEFLPIFPQRLDLCQISPKKSEKKSKKKKIPSPIKKTNDTKLSILSEKSEIRSEKHKNKCKSADLDAMEKNFKELLENFSKNAALSNSLRDEASSIISSSASSQKSLFKEINLAKKLSASYSKKPEKTGEKSKNCTFSDSTFRLSSQNDSDSDDTRPPSSQASLAFEVEQARNMMMSSAKIPKPLSSSTPRKERRTTGTNSDSNKILANLKIFKPKCGNFDLFTRKVPENIRLSESQLVELYSNREPRNSKSDITIRQFFDEEDDADKTIVEQVFKDYHRSLEKETPIMRNSATDTSGSLHIERNRDGRSASMSNLISNSGNRTNLTVFDGFAPGALRHSISTVQMSPTKKKFDEFRIEHQEPGILPRFVIKTSLRPIFSPPLDIDEICGKGLRKDAESNLRHFGGKTISAQIHGSKPVQRRPTVPKASKTGSDRPTTASTAKIVEKPEIPVEIPQKLEISRKIAEKTLKLDDFPVKSSNFSNISNFQPRRPPYCSATSSDGSAHSLATVTQQLMGTVKLLHPDWLDMLRRLLNNALPRDDVTLLFKYQVLAEKDHLERKFRGNLSVEAEAADAHLEHFGRISTLNRVLDRLADLTNDGGHVSRIQQIKIIHNALFKD	not soluble
MEVHDKIRTLREVNQWTQEEMAEKLEMSVNGYSKIERGKSGINLDKLRQIAQIFNIDVVELLAEQNRSFFFSIGDNTNNHHNIIGSDEMLVFENEKLRSLLDAKDELIRQKDSEIAVLKKLVILLEEKK	not soluble
MEVSKANGTENNVEKFDAATQEATYLDEADVDAELEAMKKRLQEMEEEANRLKEVQEQSASEVPSSEEVDRRSVYVGNVDYGSTPEELQAHFKECGTINRVTILCDKFTGHPKGFAYIEFATEEGANNAVILNESLFRGRNLKVSIKRTNVPGISTTDRGRGRGFPRGIGFRGRGGLRGGFRGRGYHGFRGRGRMTPY	soluble
MEVYIPSFRHEDSDLERGYTVFKIEVLMNGRKHFVEKRYSEFHALHKKLKKCIKTPEIPSKHVRNWVPKVLEQRRQGLETYLQAVILENEELPKLFLDFLNVRHLPSLPKAESCGSFDETESEESSKLSHQPVLLFLGDPYVLPAASDFPNVVIEGVLHGIFFSHLQPR	not soluble
MEYRLKAYYREGEKPSALRRAGKLPGLMYNRHLNRKVYVDLVEFDKVFRQASIHHVIVLELPDGQSLPTLVRQVNLDKRRRRPEHVDFFVLSDEPVEMYVPLRFVGTPAGVRAGGVLQEIHRDILVKVSPRNIPEFIEVDVSGLEIGDSLHASDLKLPPGVELAVSPEETIAAVVPPEDVEKLAEEAAAEVAEPEVIKKGKEEEEE	soluble
MFAELIRAGLQALIEAEATEAIGAGRYERSDGRIVHRNGHRPKTVSTTAGDIEVQIPKLRAGSFFPSLLERRRRIDKALHAVIMEAYVHGVSTRSVDDLVAAMGVQAGVSKSEVSRICAGLDTEIEAFRTRSLTHTEFPYVFCDATFCKVRVGAHVVSQALVVATGVSIDGTREVLGTAVGDSESYEFWREFLASLKARGLTGVHLVISDAHAGLKAAVAQQFSGASWQRCRVHFMRNLYTAVAAKHAPAVTVAVKTIFAHTDPEEVGAQWDRVADPLCQP	soluble
